Here are results for 1 molecule from patent US11230591 (Merck Sharp & Dohme, dated 2022).

One experiment deals with T1, CMV virions.
T1 construct: also called whole virions
The experiment in a line: virion ELISA. For orientation: ELISA stands for enzyme-linked immunosorbent assay.

Experiment [1] concerns the target gB on infectious CMV (neutralization assays) (human cytomegalovirus). Briefly: cell-based or functional assay.

B1: 3-25 (antibody, V domains shown)
VH: QVQLVESGGGVVQPGRSLRLSCAASGFTFSNHGLHWVRQPPGKGLEWVAVVSKDGTNEHYADSVRGRFTISRDNSKNTLYLLMKSLRLEDTAVYYCAREGYCGDDRCYSGQPDYWGQGILVTVSS
VL: EIVLTQFPATLSLSPGERATLSCRASQSVGRYLAWYQQKPGQAPRLLIYDSSNRATGVPARFSGSGSGTDFTLSISSLEPEDFAVYFCQQRSHWPPLTFGGGTKVEIK
notes: also called antibody 3-25; clone 3-25
One may read the EC50 as the concentration needed to bring the measured effect to its halfway point. A lower EC50 goes with higher potency in that assay. Consider B1, for which the response with CMV virions was half-maximal at 0.04 µg/mL (EC50). For the same molecule, the “EC50 Neutralizing” value in experiment [1] was found to be 0.3 µg/mL.
